Data from publication PMC5562876, “The integration of Gβ and MAPK signaling cascade in zygote development” (Scientific Reports, 2017).
Changes are numbered by the printed parent chain. Numbers in names are those of the source.

B1: AGB1 (purified, pull-down) (natural protein, Arabidopsis thaliana, UniProt P49177 1-377, looked up)
chain: MSVSELKERHAVATETVNNLRDQLRQRRLQLLDTDVARYSAAQGRTRVSFGATDLVCCRTLQGHTGKVYSLDWTPERNRIVSASQDGRLIVWNALTSQKTHAIKLPCAWVMTCAFSPNGQSVACGGLDSVCSIFSLSSTADKDGTVPVSRMLTGHRGYVSCCQYVPNEDAHLITSSGDQTCILWDVTTGLKTSVFGGEFQSGHTADVLSVSISGSNPNWFISGSCDSTARLWDTRAASRAVRTFHGHEGDVNTVKFFPDGYRFGTGSDDGTCRLYDIRTGHQLQVYQPHGDGENGPVTSIAFSVSGRLLFAGYASNNTCYVWDTLLGEVVLDLGLQQDSHRNRISCLGLSADGSALCTGSWDSNLKIWAFGGHRRVI
notes: AGB1, G protein beta subunit, Arabidopsis thaliana, At4G34460; source: E. coli, purified (glutathione agarose beads)
B2: GPA1 (purified, pull-down) (natural protein, Arabidopsis thaliana, UniProt P18064 1-383, looked up)
chain: MGLLCSRSRHHTEDTDENTQAAEIERRIEQEAKAEKHIRKLLLLGAGESGKSTIFKQIKLLFQTGFDEGELKSYVPVIHANVYQTIKLLHDGTKEFAQNETDSAKYMLSSESIAIGEKLSEIGGRLDYPRLTKDIAEGIETLWKDPAIQETCARGNELQVPDCTKYLMENLKRLSDINYIPTKEDVLYARVRTTGVVEIQFSPVGENKKSGEVYRLFDVGGQRNERRKWIHLFEGVTAVIFCAAISEYDQTLFEDEQKNRMMETKELFDWVLKQPCFEKTSFMLFLNKFDIFEKKVLDVPLNVCEWFRDYQPVSSGKQEIEHAYEFVKKKFEELYYQNTAPDRVDRVFKIYRTTALDQKLVKKTFKLVDETLRRRNLLEAGLL
notes: GPA1, G protein alpha subunit, Arabidopsis thaliana, At2G26300; fusion protein; also called WtGPA1; source: E. coli, purified (glutathione agarose beads)
B3: GPA1^Q222L (purified, pull-down) (natural protein, Arabidopsis thaliana, UniProt P18064 1-383, looked up)
chain: B2 chain with Q222L
notes: GPA1, G protein alpha subunit, Arabidopsis thaliana, At2G26300, with Q222L; fusion protein; source: E. coli, purified (glutathione agarose beads)
B4: AGG1 (purified, pull-down) (natural protein, Arabidopsis thaliana, UniProt Q9FDX9 1-98, looked up)
chain: MREETVVYEQEESVSHGGGKHRILAELARVEQEVAFLEKELKEVENTDIVSTVCEELLSVIEKGPDPLLPLTNGPLNLGWDRWFEGPNGGEGCRCLIL
notes: AGG1, G protein gamma subunit 1, Arabidopsis thaliana, At3G63420; fusion protein; source: E. coli, purified (glutathione agarose beads)
B5: AGG2 (purified, pull-down) (natural protein, Arabidopsis thaliana, UniProt Q93V47 1-100, looked up)
chain: MEAGSSNSSGQLSGRVVDTRGKHRIQAELKRLEQEARFLEEELEQLEKMDNASASCKEFLDSVDSKPDPLLPETTGPVNATWDQWFEGPKEAKRCGCSIL
notes: AGG2, G protein gamma subunit 2, Arabidopsis thaliana, At3G22942; fusion protein; source: E. coli, purified (glutathione agarose beads)
B6: MKK4 (purified, pull-down) (natural protein, Arabidopsis thaliana, UniProt O80397 1-366, looked up)
chain: MRPIQSPPGVSVPVKSRPRRRPDLTLPLPQRDVSLAVPLPLPPTSGGSGGSSGSAPSSGGSASSTNTNSSIEAKNYSDLVRGNRIGSGAGGTVYKVIHRPSSRLYALKVIYGNHEETVRRQICREIEILRDVNHPNVVKCHEMFDQNGEIQVLLEFMDKGSLEGAHVWKEQQLADLSRQILSGLAYLHSRHIVHRDIKPSNLLINSAKNVKIADFGVSRILAQTMDPCNSSVGTIAYMSPERINTDLNQGKYDGYAGDIWSLGVSILEFYLGRFPFPVSRQGDWASLMCAICMSQPPEAPATASPEFRHFISCCLQREPGKRRSAMQLLQHPFILRASPSQNRSPQNLHQLLPPPRPLSSSSSPTT
notes: MKK4, MAP kinase kinase 4, Arabidopsis thaliana, At1G51660; source: E. coli, purified (glutathione agarose beads)
B7: MKK5 (purified, pull-down) (natural protein, Arabidopsis thaliana, UniProt Q8RXG3 1-348, looked up)
chain: MKPIQSPSGVASPMKNRLRKRPDLSLPLPHRDVALAVPLPLPPPSSSSSAPASSSAISTNISAAKSLSELERVNRIGSGAGGTVYKVIHTPTSRPFALKVIYGNHEDTVRRQICREIEILRSVDHPNVVKCHDMFDHNGEIQVLLEFMDQGSLEGAHIWQEQELADLSRQILSGLAYLHRRHIVHRDIKPSNLLINSAKNVKIADFGVSRILAQTMDPCNSSVGTIAYMSPERINTDLNHGRYDGYAGDVWSLGVSILEFYLGRFPFAVSRQGDWASLMCAICMSQPPEAPATASQEFRHFVSCCLQSDPPKRWSAQQLLQHPFILKATGGPNLRQMLPPPRPLPSAS
notes: MKK5, MAP kinase kinase 5, Arabidopsis thaliana, At3G21220; source: E. coli, purified (glutathione agarose beads)

How the values were obtained:
Assay in all cases: pull-down; purified fusion proteins from E. coli incubated with glutathione agarose beads, 25 mM Tris-HCl pH 7.5, 100 mM NaCl, 1 mM DTT, 1 hr; seven washes with 0.1% Triton X-100; eluted with 15 mM GSH; immunoblot
Settings in all cases: both partners purified
[1] = biological target: T1, MPK6 (purified, pull-down) (Arabidopsis thaliana, UniProt Q39026 1-395)
T1 construct: MPK6, MAP kinase 6, Arabidopsis thaliana, At2G43790; fusion protein; source: E. coli, purified (glutathione agarose beads)
T1 sequence (Q39026 whole entry, the tested form may be a part): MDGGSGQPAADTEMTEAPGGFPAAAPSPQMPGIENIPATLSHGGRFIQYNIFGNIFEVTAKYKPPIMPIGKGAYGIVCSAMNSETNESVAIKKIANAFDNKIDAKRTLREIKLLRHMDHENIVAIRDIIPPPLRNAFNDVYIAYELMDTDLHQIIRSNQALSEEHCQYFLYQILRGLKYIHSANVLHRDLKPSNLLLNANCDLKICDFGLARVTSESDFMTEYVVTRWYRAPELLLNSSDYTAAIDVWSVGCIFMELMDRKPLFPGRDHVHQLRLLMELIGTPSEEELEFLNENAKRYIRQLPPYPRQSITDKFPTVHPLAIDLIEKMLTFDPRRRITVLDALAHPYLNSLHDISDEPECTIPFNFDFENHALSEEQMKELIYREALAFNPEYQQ

[2] = biological target: B7
[3] = biological target: B6
[4] = biological target: B1

B1
binding result [1]: binds

B2
binding result [1]: binds

B3
binding result [1]: binds

B4
binding result [2]: binds
binding result [1]: binds
binding result [3]: binds

B5
binding result [2]: binds
binding result [1]: binds
binding result [3]: binds

B6
binding result [4]: binds

B7
binding result [4]: binds
